Source: patent US10011602B2, “Immunological reagents and uses therefor” (THE UNIVERSITY OF MELBOURNE, priority 2012, dated 2018)

Tests used:
[1] = test system: MAIT TCR-BW hybridomas; experiment: MR1 tetramer staining of MAIT TCR-BW hybridomas; type: cell-based; conditions: hybridomas from mouse Vα19iTG splenocytes fused with BW cell line
Description: (§1) Wild-type human MR1 containing a C-terminal cysteine can be refolded with the addition of 5-amino-6-D-ribitylamino-uracil and pyruvaldehyde, using the standard refolding conditions described above, and then purified using the standard methods also described above. MR1 refolded in this way has rRL-6-CH2OH bound as determined by X-ray crystallography structural studies, and by electrospray ionization time-of-flight (ESI TOF) mass spectrometry. […] Excess biotin is removed by passing biotinylated protein through an S200 10/300 GL (Healthcare) gel filtration column in Tris buffered saline (pH 8.0), prior to formation of tetramers by addition to PE Streptavidin (#554061, BD Pharmingen). […] In the same manner human MR1 containing a C-terminal cysteine can be refolded with the addition of 5-amino-6-D-ribitylamino-uracil, and subsequently purified by fast protein liquid chromatography (FPLC) to yield MR1 refolded with a novel ribityllumazine metabolite, reduced 7-hydroxy-ribityllumazine (rRL-7-OH). The identity of rRL-7-OH bound to MR1 was confirmed by ESI TOF mass spectrometry, and by determining its structure using X-ray crystallography. The identity of rRL-7-OH bound to MR1 was also confirmed by refolding wild-type MR1 with 5-amino-6-D-ribitylamino-uracil and ^13C-glycolaldehyde to yield MR1-^13C-rRL-7-OH.

[2] = test system: control BW cells; experiment: MR1 tetramer staining of control BW cells; type: cell-based, mouse
Description: as §1

B1: mouse MR1-rRL-6-CH2OH tetramers: tetramers from mouse wild-type MR1-rRL-6-CH2OH (C-terminal cysteine) (protein, UniProt Q8HWB0 19-341; P01887 21-119, looked up)
Major histocompatibility …: RTHSLRYFRLAVSDPGPVVPEFISVGYVDSHPITTYDSVTRQKEPKAPWMAENLAPDHWERYTQLLRGWQQTFKAELRHLQRHYNHSGLHTYQRMIGCELLEDGSTTGFLQYAYDGQDFIIFNKDTLSWLAMDYVAHITKQAWEANLHELQYQKNWLEEECIAWLKRFLEYGRDTLERTEHPVVRTTRKETFPGITTFFCRAHGFYPPEISMTWMKNGEEIAQEVDYGGVLPSGDGTYQTWLSVNLDPQSNDVYSCHVEHCGRQMVLEAPRESGDILRVSTISGTTILIIALAGVGVLIWRRSQELKEVMYQPTQVNEGSSPS
Beta-2-microglobulin: IQKTPQIQVYSRHPPENGKPNILNCYVTQFHPPHIEIQMLKNGKKIPKVEMSDMSFSKDWSFYILAHTEFTPTETDTYACRVKHASMAEPKTVYWDRDM
modifications: rRL-6-CH2OH ligand; C-terminal cysteine; tetramer
Tetramer staining of MAIT TCR-BW hybridomas [1]: stain
Tetramer staining of control BW cells [2]: not
